As usually defined, the Kd is the free concentration of one partner at which half of the binding sites on the other are occupied at equilibrium, for simple one-to-one binding. Higher therefore signals lower affinity.

Residue numbers refer to the chain shown, from its start.

The labels stand for the following.
B1: anti-glucagon receptor antagonist antibody mAb5 (antibody, V domains shown)
VH: QVQLVQSGAEVKKPGASVKVSCKASGYTFTDFSVHWVRQAPGQGLEWMGWINTETDETSYADDFKGRVTMTRDTSTSTVYMELSSLRSEDTAVYYCVKSRYWSYGPPDYWGQGTTVTVSS
VL: DIQMTQSPSSLSASVGDRVTITCQASQNIRTAVVWYQQKPGKAPKLLIYLASNRHSGVPSRFSGSGSGTDFTFTISSLQPEDIATYYCLQHWTYPFTFGGGTKVEIKR
notes: Fluorescence-labeled in the yeast display experiment
B2: H2-A11-H3-3 (antibody, V domains shown)
VH: B1 VH with T55Y, E57F, R100L
VL: DIQMTQSPSSLSASVGDRVTITCRASQNIRTAVVWYQQKPGKAPKLLIYLATNRHSGVPSRFSGSGSGTDFTFTISSLQPEDIATYYCLQHWTYPFSFGGGTKLEIK
B3: H2-C8-H3-3 (antibody, V domains shown)
VH: B1 VH with D56R, E57G, R100L
VL: B2 VL
B4: H2-A11-H3-4 (antibody, V domains shown)
VH: B1 VH with T55Y, E57F, Y101W
VL: B2 VL
B5: H2-A11-H3-2 (antibody, V domains shown)
VH: B1 VH with T55Y, E57F, R100L, Y101F
VL: B2 VL
B6: H2-C8-H3-4 (antibody, V domains shown)
VH: B1 VH with D56R, E57G, Y101W
VL: B2 VL
B7: H2-A11-H3-1 (antibody, V domains shown)
VH: B1 VH with T55Y, E57F, K98E, R100L
VL: B2 VL
B8: H2-C8-H3-2 (antibody, V domains shown)
VH: B1 VH with D56R, E57G, R100L, Y101F
VL: B2 VL
B9: H2-E7-H3-2 (antibody, V domains shown)
VH: B1 VH with I51Y, T53L, R100L, Y101F
VL: B2 VL
B10: H2-E7-H3-3 (antibody, V domains shown)
VH: B1 VH with I51Y, T53L, R100L
VL: B2 VL
B11: H2-E7-H3-4 (antibody, V domains shown)
VH: B1 VH with I51Y, T53L, Y101W
VL: B2 VL
B12: H3-C10 (antibody, V domains shown)
VH: B1 VH with R100L
VL: B2 VL
B13: H2-E7 (antibody, V domains shown)
VH: B1 VH with I51Y, T53L, Y101G
VL: B2 VL
B14: H2-A8 (antibody, V domains shown)
VH: B1 VH with T55F, E57F, Y101G
VL: B2 VL
B15: H3-H9 (antibody, V domains shown)
VH: B1 VH with Y101W
VL: B2 VL
B16: H2-A11 (antibody, V domains shown)
VH: B1 VH with T55Y, E57F, Y101G
VL: B2 VL
B17: H2-C8 (antibody, V domains shown)
VH: B1 VH with D56R, E57G, Y101G
VL: B2 VL
B18: H3-F5 (antibody, V domains shown)
VH: B1 VH with R100L, Y101F
VL: B2 VL
B19: H2-F11 (antibody, V domains shown)
VH: B1 VH with T55F, E57Y, Y101G
VL: B2 VL
B20: H2-F10 (antibody, V domains shown)
VH: B1 VH with T53L, T55F, Y101G
VL: B2 VL
B21: mAb4 (antibody, V domains shown)
VH: QVQLVQSGAEVKKPGASVKVSCKASGYTFTSSLIHWVRQAPGQGLEWMGYINPYNDGTKYNEKFKGRVTMTRDTSTSTVYMELSSLRSEDTAVYYCARMDYGNLWYFDVWGQGTLVTVSS
VL: EIVLTQSPATLSLSPGERATLSCRASENIYYSLAWYQQKPGQAPRLLIYNANSLEDGIPARFSGSGSGTDFTLTISSLEPEDFAVYYCKQAYDVPFTFGGGTKVEIK
B22: mAb1 (antibody, V domains shown)
VH: QIQLVQSGPELKKPGETVKISCKASGYTFTDFSIHWVKQAPGKGLKWMGWINTETDESTYADDFKGRFAFSLETSASTAYLQINNLKNEDTATYFCVKSRGWTYGPPDYWGQGTTLTVSS
VL: DIVMTQSQKFMSASVGDRVSITCKASQNVRTAVVWFQQKPGQSPNTLIYLASNRHSEVPDRFTGSGSGTDFTLTISNVQSEDLADYFCLQHWTYPFTFASGTKLEIK
B23: mAb2 (antibody, V domains shown)
VH: B1 VH with Y101G
VL: B2 VL
B24: FF2-H3RY (antibody, V domains shown)
VH: B1 VH with T55Y, E57F
VL: B2 VL with R24Q, T52S, S97T, L104V
B25: FF2 (antibody, V domains shown)
VH: B1 VH with T55Y, E57F, R100L
VL: B2 VL with R24Q, T52S, S97T, L104V
B26: FF2-H2WT H3RY (antibody, V domains shown)
VH: B1 VH
VL: B2 VL with R24Q, T52S, S97T, L104V
B27: FF2-H2WT (antibody, V domains shown)
VH: B1 VH with R100L
VL: B2 VL with R24Q, T52S, S97T, L104V
B28: FF2-H2RG (antibody, V domains shown)
VH: B1 VH with D56R, E57G, R100L
VL: B2 VL with R24Q, T52S, S97T, L104V

Sequence of human glucagon receptor on stably transfected CHO cells (P47871 26-477 limits assumed): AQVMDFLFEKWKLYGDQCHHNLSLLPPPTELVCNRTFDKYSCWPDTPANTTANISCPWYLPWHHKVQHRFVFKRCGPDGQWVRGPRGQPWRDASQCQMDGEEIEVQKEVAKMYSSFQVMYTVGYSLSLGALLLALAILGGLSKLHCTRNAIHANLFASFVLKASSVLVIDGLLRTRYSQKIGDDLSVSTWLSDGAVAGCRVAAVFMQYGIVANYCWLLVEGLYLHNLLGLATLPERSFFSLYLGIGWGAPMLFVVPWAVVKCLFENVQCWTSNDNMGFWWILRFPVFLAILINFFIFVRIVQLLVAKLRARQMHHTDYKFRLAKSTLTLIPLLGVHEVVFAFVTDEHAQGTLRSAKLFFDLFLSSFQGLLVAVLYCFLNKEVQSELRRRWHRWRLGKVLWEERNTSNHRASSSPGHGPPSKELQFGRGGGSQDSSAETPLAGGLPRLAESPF

The first experiment concerns the target human glucagon receptor on stably transfected CHO cells (human, UniProt P47871 26-477). The experiment is described as follows: cell-based or functional assay.
Regarding B1, the “IC50 (read off the curve)” value is about 1 µg/mL.

The target in the next experiment is T1, glucagon receptor (target of the KD / T½ of Tables 1A, 1B and 2B) (Homo sapiens (Human), UniProt P47871 26-136).
T1 construct: not shown: Human Fc carrier (and any linker) of the ECD-Fc fusion
T1 sequence (P47871 26-136 limits assumed): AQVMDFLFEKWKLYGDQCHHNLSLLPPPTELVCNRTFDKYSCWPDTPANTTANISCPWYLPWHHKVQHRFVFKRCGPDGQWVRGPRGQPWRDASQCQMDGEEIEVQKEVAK
Nature of the experiment: not stated; 37° C.
B2: the T½ amounted to 17.2 h.
B3 displayed a T½ of 12.4 h.
The same measure, in the same setting: the figure for B4 is 6.36 h; for B5 it is 8.53 h; for B6 it is 5.3 h.
The same measure, in the same setting: then B7, with 4.19 h.
On the same count and under the same terms, the figure for B8 is 6.89 h; for B9 it is 7.94 h.
As for B10, the T½ worked out at 14.9 h.
Molecule B11 yielded a T½ of 7.37 h.

Another experiment has as its target T1, glucagon receptor (target of the KD / …). Nature of the experiment: not stated; 37° C. (entry printed a second time).
B3 showed a T½ of 12.4 h.
As to B4, the T½ turned out to be 6.36 h.
The same measure, in the same setting: the figure for B8 is 6.89 h.

A further experiment has the same target. Nature of the experiment: not stated; 25° C.
B12 showed a T½ of 0.0613 h.
The same measure, in the same setting: the figure for B13 is 0.228 h.
On the same count and under the same terms, then B14, with 0.346 h; and B15, with 0.0377 h.
On the same count and under the same terms, the figure for B16 is 0.438 h; for B17 it is 0.344 h; for B18 it is 0.04 h.
The molecule B19 had a T½ of 0.296 h.
With B20, the T½ is 0.36 h.

For the next experiment the target is unchanged. Nature of the experiment: not stated (column of Table 1A).
B21 had a dissociation constant (Kd) of 10200 pM.
Same read-out and setting: the figure for B22 is 640 pM.
Same read-out and setting: the figure for B1 is 224 pM.
With B23, the “T½” value is 5.75 min.

The target is the same in another experiment. Nature of the experiment: not stated (column of Table 1B).
Consider B24, for which the Kd is under 125 pM.
The molecule B25 displayed a Kd of 171 pM.
In turn, B26 displayed an equilibrium dissociation constant (Kd) of 224 pM.
Still for that read-out and setting: the figure for B27 is under 200 pM; for B28 it is 187 pM.

The values above are taken from patent US20160311912A1 (RINAT NEUROSCIENCE, published 2016).
